# Experiment: soluble on expression in E. coli; label from the status in PepcDB or PDB records
row,Sequence,soluble on expression in E. coli
1,MRHSSYEHVPNRIIPPHIPIDARRGDFDRRPGPPVPSMRAAILGGSDPYHGFQPVVDTYNGPVVDNSRRRGFDKGPFGEDLTTMGRNEGRQPLLRHPRLDFEHIGGEMEIARSRSASPEIQVISARSVRDDRRRDKPRQRRSSRSRSRDRGDKDHRKPAASRRSDRESTYRERLGSSSGPAAAPDIIRDGMVWANDNYFEFLSFYIEVLNEKLRSSVDRDVKGIREIREVITPATEPEKDRIVLPPNFNRSDRERMLHCDTTITGLPTAIFFGSGYGPREHYAKYSAAKDFFDKCLKIRVMDDELHAAIGEWPRLDRTFKTQFKVNISKSVNAVILLIKRMANEQLPPGFMTMRTLPIDIIDRFKFLLRMVVADVYYQGTESSMAVPKALETGYNTQPYPPNQYPLDTDIRRPSERPSNGPSAEEAARVRDQEIKEQVARELEKRQKVMEQEIRAKILEEERARIQGEAEREKKLELMKAEEQKYQKEKEMKEFEEQQKKAMMTKQVEDDFNVMVEQLEKMFVEVRSKGLNHILDMIYGSATFKTIQLYSSTLTSLSFEQKQKLVQDLRSLLDSVTMGMKVAAVAQMSQAQNPIQGGLFQHQQQQQQPMMSGGGGFVSGVQVVPMQVPMQSYQMPQMQIHHQAFPQPQQLNTTPLLSSSVPMRRDEVRRVTVGDMRLRSLSRSEQRDLRVGNKIIAQDSKTGTWTLATVVKIREDRVTVSVANGTWKKDIDDLYKEDDGSLVY,not soluble
2,AHHHHHHGSKPKVFITRAIPENGINMLEEEFEVEVWEEEREIPREKLLEKVKDVDALVTMLSERIDQEVFENAPRLRIVANYAVGYDNIDVEEATRRGIYVTNTPDVLTNATADHAFALLLATARHVVKGDKFVRSGEWKRKGIAWHPKWFLGYELYGKTIGIVGFGRIGQAIARRAKGFNMRILYYSRTRKSQAEKELGAEYRPLEEVLKESDFVILAVPLTKETMYMINEERLKLMKPTAILVNIARGKVVDTKALIKALKEGWIAGAGLDVFEEEPYYNEELFSLDNVVLTPHIGSATFEAREAMAELVARNLIAFKRGEIPPTLVNKEVIKIRKPGFNEQ,not soluble
3,METTVMPAAASVQKQQGLNQVVINKVQRMIESRQGGVMDTINRLLSEGRIAQDFIAPIGVSQRSKERPVISFKAEGRVQMAMPEGNFNLHGNAISQISEKMGIPAKYLRELSAGDVWQKQLCATILNEHSGWTERTRVLIRAVGMEVRGVLSDSYRRLNSVDILTAFIREAGGQGAVVSDAYMNDTKVWCETILPTPIEIPTRKNGTVIIFAGARFSTSDYGNGSVEMRSFLLNGACLNGMVRESVMRQIHLGGRLPESLSLSQKTYELDTQTTVSAVSDLTKGLYSKDTIMQKAIEIQGASEIDVDFDKELKNLVQKGALLKNEGREVEKLLMNNNPDDGVTGGATLWKLTQGITAFAREQQPERCRELHEISGQLMNRVKIN,not soluble
4,MAVTNVAELNALVERVKKAQREYASFTQEQVDKIFRAAALAAADARIPLAKMAVAESGMGIVEDKVIKNHFASEYIYNAYKDEKTCGVLSEDDTFGTITIAEPIGIICGIVPTTNPTSTAIFKSLISLKTRNAIIFSPHPRAKEATNKAADIVLQAAIAAGAPKDLIGWIDQPSVELSNALMHHPDINLILATGGPGMVKAAYSSGKPAIGVGAGNTPVVIDETADIKRAVASVLMSKTFDNGVICASEQSVVVVDSVYDAVRERFASHGGYMLQGQELKAVQNVILKNGALNAAIVGQPAYKIAELAGFSVPETTKILIGEVTVVDESEPFAHEKLSPTLAMYRAKDFEEAVEKAEKLVAMGGIGHTSCLYTDQDNQPERVAYFGQMMKTARILINTPASQGGIGDLYNFKLAPSLTLGCGSWGGNSISENVGPKHLINKKTVAKRAENMLWHKLPKSIYFRRGSLPIALDEVITDGHKRALIVTDRFLFNNGYADQITSVLKAAGVETEVFFEVEADPTLSVVRKGAELANSFKPDVIIALGGGSPMDAAKIMWVMYEHPETHFEELALRFMDIRKRIYKFPKMGVKAKMIAVTTTSGTGSEVTPFAVVTDDATGQKYPLADYALTPDMAIVDANLVMDMPKSLCAFGGLDAVTHALEAYVSVLASEFSDGQALQALKLLKENLPASYHEGSKNPVARERVHSAATIAGIAFANAFLGVCHSMAHKLGSQFHIPHGLANALLICNVIRYNANDNPTKQTAFSQYDRPQARRRYAEIADHLGLSAPGDRTAAKIEKLLAWLESIKAELGIPKSIREAGVQEADFLAHVDKLSEDAFDDQCTGANPRYPLISELKQILLDTYYGRDFTEGEVAAKKDVVAAPKAEKKAKKSA,soluble
5,ILKELENLSPEEAAHQKAVVETLLQEDPWRVAKMVKSYLQQHNIPQREVVDTTGLNQSHLSQHLNKGTPMKTQKRAALYTWYVRKQREVAQQFTHAGQGGLIEEPTGDELPTKKGRRNRFKWGPASQQILFQAYERQKNPSKEERETLVEECNRAECIQRGVSPSQAQGLGSNLVTEVRVYNWFANRRKEEAFR,soluble

# Source: the DeepSol protein solubility set
